Earlier results as cited in article PMC3324669.
pKd: −log10 of the molar value.

Target: CD155 (Homo sapiens) (UniProt P15151)

pKd: 8.70
Substance: CD226 (from UniProt Q15762)
